This is an account of results in patent US20100184652A1 (NEW YORK BLOOD CENTER, published 2010).

The target in one assay is T1, GST protein alone (UniProt P08515 1-218 = GST).
T1 construct: Control analyte in SPR; also called glutathione S-transferase
In words: SPR (Biacore 3000), peptide-coupled chip. How it is done:
The top photograph was incubated with a biotinylated GST-Abl-SH3 domain (GST-Abl-SH3-B). No binding to biotinylated GST (GST-B) was observed (middle panel). […] Panels B-D show binding to the c-Abl SH2 domain. […] No binding to the GST protein alone was observed (not shown). RU, response unit.
Surface Plasmon Resonance Assay. Surface plasmon resonance assay was performed using a Biacore 3000 instrument (BlAcore Inc., Piscataway, N.J.). Biotinylated 14-residue peptides, pY213 or Y213, were coupled to surface of streptavidin-coated (SA) biosensor chip (BIAcore Inc., Piscataway, N.J.). Binding reactions were done in HBS-EP buffer, containing 10 mM HEPES, pH 7.4, 150 mM NaCl, 3 mM EDTA, and 0.05% (v/v) surfactant P20. The surface was regenerated before each new injection using 50 mM NaOH and 1M NaCl. The Biacore instrument was programmed to perform a series of binding assays with increasing concentrations of GST Abl SH2 polypeptide over the same regenerated surface. Sensograms (plots of changes in response unit on the surface as a function of time) derived were analyzed using the software BIAeval 3.0.

A further assay addresses T2, biotinylated GST (UniProt P08515 1-218 = GST, biotinylated (sites not given)).
T2 construct: also called GST-B
Nature of the assay: blot overlay with biotinylated GST. The procedure: FIG. 2 is graphs and photographs of western blots showing the identification of the minimal binding region of c-Abl SH3 and SH2 domains in the N-terminus of Abi1. […] Recombinant GST fusion polypeptides containing the N-terminal terminal region of Abi1/Hsshb3p1 were separated on SDS polyacrylamide gels and transferred onto a nitrocellulose membrane. […] The top photograph was incubated with a biotinylated GST-Abl-SH3 domain (GST-Abl-SH3-B). No binding to biotinylated GST (GST-B) was observed (middle panel). […] Panels B-D show binding to the c-Abl SH2 domain. […] No binding to the GST protein alone was observed (not shown). RU, response unit.

Where no end group is shown, it is not given here. [ ]: non-standard residue; d: D form. pY = N[C@@H](Cc1ccc(OP(=O)(O)O)cc1)C(=O)O

T2 sequence (P08515 whole entry): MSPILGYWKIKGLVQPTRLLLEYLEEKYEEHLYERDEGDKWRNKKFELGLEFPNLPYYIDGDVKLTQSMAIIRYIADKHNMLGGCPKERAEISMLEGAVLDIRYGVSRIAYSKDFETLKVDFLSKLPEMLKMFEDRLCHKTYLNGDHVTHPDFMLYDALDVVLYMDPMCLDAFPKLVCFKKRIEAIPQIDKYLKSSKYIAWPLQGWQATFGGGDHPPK
T1 sequence (P08515 whole entry): as above

B1: pY213 peptide (14-residue Abi1 peptide containing phosphorylated tyrosine 213) (peptide)
peptide: VKPPTVPND[pY]MTSP
modifications: also: biotinylated (site not given here)
notes: Biotinylated and coupled to a streptavidin chip in SPR; also called phosphopeptide pY213
In the case of B1, the binding result in the assay with GST protein alone is “no binding”.

B2: GST fusion polypeptide of Abi1 N1-172 (other)
chain: MAELQMLLEEEIPSGKRALIESYQNLTRVADYCENNYIQATDKRKALEETKAYTTQSLASVAYQINALANNVLQLLDIQASQLRRMESSINHISQTVDIHKEKVARREIGILTTNKNTSRTHKIIAPANMERPVRYIRKPIDYTVLDDVGHGVKWLKAKHGNNQPARTGTLS
notes: not shown: glutathione S-transferase (GST) from pGEX-2T
On to B2, for which, in the assay with biotinylated GST, the binding result is listed as “no binding”.

B3: GST fusion polypeptide of Abi1 N1-187 (other)
chain: MAELQMLLEEEIPSGKRALIESYQNLTRVADYCENNYIQATDKRKALEETKAYTTQSLASVAYQINALANNVLQLLDIQASQLRRMESSINHISQTVDIHKEKVARREIGILTTNKNTSRTHKIIAPANMERPVRYIRKPIDYTVLDDVGHGVKWLKAKHGNNQPARTGTLSRTNPPTQKPPSPPMS
notes: as for B2
Regarding B3, the binding result with biotinylated GST is reported as “no binding”.
